Experimental findings from a protein production outcome set (Wang et al. 2014) are described below.

The data set can be described thus: label from the status in PepcDB records.
As for “HIDLFDLDVEEPNDRIFIKGEAEEWPAYRKVPEVRENCNACGVCKDVCQYSAIYVIDKAYPLPELCHSCGACIYLCPEKAMEEVDYQTGKIVRVKSDITLTYGEMRIGEASAVFLIKQVKELMGKNAIIDSPPGASCPMVESVSDADYVILVAEPTPFGLHDLKIAAEVVSDLGLKFGVVVNKHGLPFDGIERYCKEGGVEILGKIPFSKEIAEKYSRGELLHDMKDFFVQLYEG”, the protein production result is “failed”. For “MMTTLQILFWLSLFLVFYTHLGYGILLYMLVKLKELFVKPVRRQLPPDKRLPDVTLFITAFNEEEVVDEKMRNCLGLDYPADKLHIVWTTDGSNDSTNQRLEDWPQATVHFQPLRQGKTAAMTRGMMLVDTPLVVFTDANTMLNREAIREIVRAFEDPKVGCVAGEKRIAVQEKDGAAAGGEGIYWKYESTLKALDARLYSAVGAAGELFAVRRELFTVMEPDTLLDDFILSLRIAMQGYKIAYCTQAYAIESGSADIREEQKRKVRIAAGGLQSIWRLRELLNPFRYGVLTFQYVSHRVLRWSLAPVLLFALLPLNIAILLAGGSPVCYGTILALQLLFYIMGGWGYYLSTRQVKNKLLFIPYYFLFMNINVMKGVNYLRKKKGTGAWEKAKRTKTESLNQ” the value was “failed”; for “MHQLWTYDPAAGTVEVGAGTTNEGLVDGPGEEAWFAQPSGLAATADRLWLADSETSALRWVDLDGAVHTAVGTGLFDFGHRDGDAEQALLQHPLGVTALPDGSVAVSDTYNHALRRYDPATGEVTTLATDLREPSDAVLVGDDIVVVESARHRLTRLRLPEEAVRVASVAHRTQRAATEVAPGRLQLDVIFQAPAGQKLDTRYGPSTRLLVSSTPPELLLNGEGADPDLSRTLELNPAIPEGVLHVSAMAASCDDDPANEYPACHVHQQDWGVPVRLTEGGADRLPLVLAGMDALEHHHHHH”, “failed”. The entry for “MPQFPWKDNDAELSPLEAFLAEWDDPEAEEEDFRNDFFRGSEGRRKKAAVMLMAIWTVVITLHYWVWGSWLVWALTGALSLQALRLMKATPEEAPPLLTGDASTVPYPQVCLMVAAKNEEAVIGKIVQQLCSLDYPGDRHEVWIVDDNSTDRTPAILDQLRQQYPQLKVVRRGAGASGGKSGALNEVLAQTQGDIVGVFDADANVPKDLLRRVVPYFASPTFGALQVRKAIANEAVNFWTRGQGAEMALDAYFQQQRIVTGGIGELRGNGQFVARQALDAVGGWNEQTITDDLDLTIRLHLHQWKVGILVNPPVEEEGVTTAIALWHQRNRWAEGGYQRYLDYWRWICTQPMGWKKKLDLFSFLLMQYLLPTAAVPDLLMALWQRRFPLLTPLSYLAIGFSCWGMYYGLKRLTPSEGESPWQQMPALLARTIGGTIYMFHWLIIMPAVTARMAFRPKRLKWVKTVHGAATEDALELKQS” is “failed”; for “MGHNGIINYEVDVQDNKIEDLKILKHSETSGIFNQVIDKLKQNIITEQSFNVDTISGATVMTQALLKSADKAVTDAGVDVQLEHHHHHH” it is “not failed”; for “MKNKLAITKLSNNVFLLLCTALTFTPIANAAEVIELTIAEPSALKPDFIGYNANMMSAMSTNPWDRTELTQLYKNTGTSIIRYPGGTIANNFDWPTGNQIKINSSGEESLGSYDYKISNFKTGYQNAGFEPIFVVNLLTRDLQHTLDGLADATAKSLPINRIELGNEFFLKDEAYVDMFPSGQDYVSKADIWTDAIKAIYPHVEIAYVSTMKKDPRSLEWNEKISQCTKCDAIIIHTYTRSELNPVLPADKSTSYFGTNEEQNQQWQQFITNSGVDIMLAQPFEAWHGYTSLNNLPSDKKIWITEFNMKDGTGPTRNTWAHALFNANQLQSFLTDGRVEIALLHNLITGAKSGSHYLGNTFSGLTIDHGQGDLSSQKYSLSAGGIAMRAFGSVLKGMDTIAKINLSDTPTVSPTGYADYDAIYGWQGSNSANEEQRYLLINTSSVSYTVNTENLTTSNKSVRQYWTKPQTFIHSEEVLSGGMVNSLPTLLKLPAYSITVIGETAIELPSNYQQTLTLTATDDHFTKEANPNGKGQPTASQININNSEGDQSRPHIKFNTNQVKGSIESVTLKVYSESVTDTVSAHKINNEWDEYELTWNTMPTLGEFINSASADKNAWLEINVTASLLKSDSLLSFALTNSLTSLNKFSSKEGNKAPELIITTSNAVINVADTNITKDDANILQYYSNSLADAVSDDDNDKLSFYKTSGPSWLMLWSNGKIEGTPTADDIGENTFAIKVSDNTGQASATTALNLTINVISDAPTNAAPVWNNIQNILQQATENISYNSNILALATDADNDALIFAKVSGPDWLSLSDAGEVTGTATNSDIGENNVIVSVTDGTNNSNEFINNELIITVTAEIAVEPINNAPTWSNENIALELATQEQAYTNNIMTFTNDLDGDILVFAKVSGPQWLTLSEAGDITGTPSGNDIGENIFILSVTDSDSDTAQVINNTFTIIVSTKPEPEPTPKTEEDNSEGGSISFSLLLLCFLRVFTMRNKF” it is “failed”.

Regarding “MKTSIIILTCNNLRYSRRCIESIKKYTEKEAYEIIVVDNNSNDGTRNWLSKQKAIKKIYNNVNVGFPRGCNMGIKVACGSEVLLLNNDVVVTHNWLNNLRNCLYSSYEIGAVGPISNNCSNGQKINVRYDSIEDMHRFSKKYNISNKKKWTEVKRLIGFCFLIKRNVIRKVGLFDERFTPGNFEDDDYCIRMRKIGFRLMLCKDTFVHHYGSVSFKNTQYLKLLEVNKSKLEKKWGKSYDKLVLEHHHHHH”, the protein production entry is “failed”. For the sequence “MPVAVVANPKGGVGKTTLATNLAGYFAARDHAVMLGDTDRQQSSREWLALRPATARPIHTWDISADHIAKPPKGTTHVVLDTPAGLHGWRLADLIRLAGHVIVPLQPSMFDILATQAFLCKLADEKPVRHGEAKVGVVGMRVDMRTRAAEQLQRFVQGLQIPILGYLRDTQNYVQLAAHGLTLWDVAPSRVARDVEQWRGILDWMAPGGITASPDSM”, the protein production entry is on record as “failed”. The entry for “MFERFDSDRSRYASLGVVSSLPSGLIDSIWLIIDLNLKGVIPLNDLLHFDLLNNNGKVTVHFSQENSSVEMAIDLPFSYSTAYPSRIFAFDDGHRETILLPAEMLES” is “not failed”. For “MLELLTLLLPVAAASGWYAAARHHGRNLSAGLNDGLQRAYQTPTDTAIGARADEAFHLLRQIADSSAKTLELQLALGGLLRRSGELSKAIELHERLHSQPQMSDEQLHAIRFELGMDYLSAGLLDRAETVFAGLTATASHGKASLQQMLAIYQSEKDWVRAAECARSLKKFDAGQRNATLAHLLCEQAESAIARGETVAAHAHLQQALAEDPRCVRATLLKSRLALQRQQWAEAGTLLRSVEFQNPAFLPEVIGQLRLCHASLRDMDGYLTYLDYVYQRYRTEAAALLLADELAQREGAPAAASYLTGLLSERSSLNLIRRTLHYAGAATCIDGDCLSILRRCLTALDGLASMHPGYGCVQCGYECRELHWHCPTCRAWETIQPADPGVGFSGKTPATTPS” the value was “failed”; for “MASYDQISKNNWRYRISLGKNAETGKYEYISKTGFKRKSDAKHQAEMIGRQLRNGDYIAPSSSTFKQVADDWLKQYANDVKVSSVRAREKAIQHAIERFNTKPIQTIKKHDYQRFVDDISAQYSKNYVDSIVASTNMIFKYAYDTRLIKAMPSEGIKRPKKKVSVEELEDIEIHKKFLEKDELFQFLKVAKYHHSPQNSFEVFTTLAYTGMRAGELLALKWSDIDFENNTISITKTYYNPNNNKKHYQILTRKTESSIGKITVDPHVIQLLKDYKVNVQDTWKNELYVDNNFVFTDVNGYPLVIKKLQLWIKAILKKTDITNKQISTHSFRYTHYALLIEAGVHIKEIQERLRHKDINTTMNIYAKITNSYKKDASQKFSKLMENVSKGLF”, “failed”.

As for “MTNTHEINALKKYVRATNFLATSQIYLKQNVLHKRPLAHSDIKPRLLGHWGTCPGINFVYANINRLIVKHNRPFIYLVGPGHGFPAVQANLFIEGSLSHFYPETIPYNETGIEDICKKFSAAYGYPSHANPEAPGQILEGGELGYSLSVGWGAVLDNPDLIATVLVGDGESETGPLAASWYANRLVSPATNGAVLPIVHINGYKISGPTRMGRMSHEELDLEFRGLGYHPIIVDSEAEEDVYIQMATAMDTAYSMINDIQTRARKGEDIVK”, the protein production result is “failed”. As to “MKMLNRLDLGVPCLRAGFAGEQAFFLAMDGRLHVQQGDQRRVVALHDGDVLSACAAPGQADAAAWLLSAGEDGRVMRAGAGEPDCVASVPNKWVTALAVAADGALAYASGRTVWLAGGGGEAAALPQERPVQALRFSHGGRWLAVAGYDGLALYDRQAGGEPQRLDWKGMPTRVAFSPDDRFVLVATRDAVLHGWRLDTLRHFRMVGYPRAVGSWSWLAGGQWLATDGSAGAVLWPFEGEEGPIGSTPLALGERPDGEVSAVACHPARPWVAVGYADGLMVLESTDGALRRILGQAGRDRVACLAWDRAGARLAYGTPSGACGVIQADTGEEG”, the protein production result was “failed”.
